B1: RapZ (full-length, purified recombinant) (natural protein, E. coli, UniProt P0A894 1-284, looked up)
chain: MVLMIVSGRSGSGKSVALRALEDMGFYCVDNLPVVLLPDLARTLADREISAAVSIDVRNMPESPEIFEQAMSNLPDAFSPQLLFLDADRNTLIRRYSDTRRLHPLSSKNLSLESAIDKESDLLEPLRSRADLIVDTSEMSVHELAEMLRTRLLGKRERELTMVFESFGFKHGIPIDADYVFDVRFLPNPHWDPKLRPMTGLDKPVAAFLDRHTEVHNFIYQTRSYLELWLPMLETNNRSYLTVAIGCTGGKHRSVYIAEQLADYFRSRGKNVQSRHRTLEKRKP
notes: The Strep-tag is cleavable by TEV protease; Construct and procedure follow Gonzalez et al, 2017; In all complexes with RNase E-NTD the sRNA GlmZ was present; also called RapZ tetramer; full‐length RapZ; source: E. coli Rosetta, plasmid pMCSG7, purified (Strep Trap HP, Superdex 200 SEC)
B2: T25-RapZ 4 substitutions (T161A, Y240A, N271A, Q273A; BACTH fusion) (natural protein, E. coli, UniProt P0A894 1-284, looked up)
chain: B1 chain with T161A, Y240A, N271A, Q273A
notes: RapZ, E. coli, with alanine substitutions of Q273, N271, Y240 and T161; source: bacterial two-hybrid fusion (pKT25 plasmid) in E. coli BTH101
B3: RNase E-NTD (residues 1-598, Δ568–582, D346C) (domain or fragment)
chain: not shown
notes: also called mutant RNase E‐NTD; RNase E catalytic domain; source: E. coli BL21(DE3), pET16 vector, purified (IMAC, butyl Sepharose, Superdex 200 SEC)

Residue numbers refer to the chain shown, from its start. Names may count otherwise.

The target of data set [1] is B3. Kind of data set: cryo-EM structure; RNase E-NTD (D346C), full-length RapZ and full-length GlmZ RNA at 5:25:10 μM in 25 mM HEPES pH 7.5, 300 KCl, 1 mM MgCl2, cross-linked with 0.01% glutaraldehyde, Superose 6 SEC, graphene oxide-coated grids; binary RapZ:GlmZ and ternary classes from one dataset. To be noted: both partners purified.
Data set [2] deals with the molecule itself. The data set is described as above.
The target in data set [3] is T1, RNase E-NTD (wild type, BACTH fusion) (E. coli, UniProt P21513 1-529).
T1 construct: RNase E, E. coli, N-terminal catalytic domain (NTD); The text calls the two-hybrid partner 'RNase E' and its variants 'RNase E‐NTD variants'; also called RNase E wild type; source: bacterial two-hybrid fusion (pUT18C-type plasmid) in E. coli BTH101
Kind of data set: two-hybrid; adenylate cyclase-based bacterial two-hybrid (BACTH) in E. coli BTH101, pKT25 (T25-RapZ) and pUT18C-type plasmids, LB with 1 mM IPTG, β-galactosidase activity; endogenous GlmZ present in the cell. To be noted: partners not purified.

As to B1, the “stoichiometry N” value in data set [1] is 2 RapZ tetramers per RNase E-NTD tetramer; in data set [2], 4.

Take B2: in data set [3], the “fold decrease of the BACTH signal against wild-type RapZ” value was determined as 2 fold. B3: the “stoichiometry N” value in data set [2] is 4.

The values are drawn from article PMC9841335, “Structure of a bacterial ribonucleoprotein complex central to the control of cell envelope biogenesis” (The EMBO Journal, 2022).
